Several values for one entry are separate records, joined by “and”; a condition that tells them apart may be missing. Equal values may be shown once.

This is an account of results in publication PMC10147923, “Pain-causing stinging nettle toxins target TMEM233 to modulate NaV1.7 function” (Nature Communications, 2023).

One assay has as its target NaV1.7 (Homo sapiens, UniProt Q15858). The format is cell-based. The method, then:
To determine recovery from fast inactivation, a 20 ms pulse to 0 mV from a holding potential of −90 mV was used to induce fast inactivation. A subsequent recovery period, ranging from 1 ms to 2216 ms in 50% increments at −90 mV, was followed by a last 20 ms test pulses to 0 mV to determine the time-dependence of recovery from fast inactivation. The proportion of available channels was determined by normalizing peak currents from the last to the first pulse. A two-phase exponential equation was fit to the normalized current, plotted as a function of time, to determine the time constants τ1 and τ2 of recovery from fast inactivation.

The next assay concerns the target NaV1.7/TMEM233 (Homo sapiens, UniProt B4DJY2+Q15858). The assay is described as follows: Proximity ligation assay NaV1.7 and TMEM233. Particulars: Fig 5e. The method, then: HEK293 cells stably expressing β1/β2 were transiently transfected in T25 flasks using Lipofectamine 2000 with plasmids encoding GFP (0.35 μg) as a transfection control, as well as N-terminal HA-tagged TMEM233 (0.35 μg) and N-terminal FLAG- tagged NaV1.7 (1.0 μg) alone or in combination. The total amount of plasmid DNA/T25 flask was kept constant at 1.7 μg flask using empty pcDNA3.1 plasmid as required. After 24 h incubation at 37 °C, cells were plated on PDL-coated glass coverslips and cultured for a further 24 h. Cells were washed once using sterile phosphate-buffered saline, fixed with 4% formaldehyde for 5 min, permeabilized with 0.1% Triton-X 100 in PSS, blocked using proximity ligation bocking buffer (Sigma DUO82007) and incubated for 1 h with anti-FLAG (1:1000; Sigma F1804) and anti-HA (1:1000; Sigma H6908) antibodies in Duolink antibody diluent. Permeabilized cells were then washed twice with wash buffer A at room temperature for 5 min. Anti-mouse PLUS (Sigma DUO92001) and anti-rabbit MINUS (Sigma DUO92005) probes were diluted 1:5 in Duolink antibody diluent and incubated with cells for 1 h at 37 °C. Cells were then washed with wash buffer A at room temperature for 5 min twice and incubated with ligase diluted 1:40 in ligation buffer. After incubation at 37 °C for 30 mins, cells were washed twice with wash buffer A. Polymerase was diluted 1:80 in amplification buffer and incubated with cells for 100 mins at 37 °C. Cells were subsequently washed with wash buffer B twice for 10 mins and mounted with Duolink In Situ mounting media with DAPI. Cells were imaged on a Zeiss AxioImage M2 with Apotome2 and Axiocam 506 camera. Proximity ligation assay signal (PLA particles) in GFP-positive cells were quantified using ImageJ in collapsed stacks from 3–6 random images obtained per coverslip (Image>Type>8-bit; Image>Adjust>Threshold; Image>Analyze>Analyze Particles). Particles size was set to 0.0003–∞ and circularity to 0.00–1.00. The average number of particles/GFP-positive cells from three independent experiments was analyzed by One-way ANOVA.

Chain of NaV1.7/TMEM233 (Q07699 19-218, one chain of several, further chain): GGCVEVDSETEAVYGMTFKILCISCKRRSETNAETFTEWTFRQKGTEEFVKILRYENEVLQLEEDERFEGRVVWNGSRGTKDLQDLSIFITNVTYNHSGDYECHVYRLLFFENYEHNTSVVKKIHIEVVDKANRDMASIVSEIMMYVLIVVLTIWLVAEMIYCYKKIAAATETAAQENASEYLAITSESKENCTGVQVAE
Chain of NaV1.7/TMEM233 (Q15858 whole entry, one chain of several): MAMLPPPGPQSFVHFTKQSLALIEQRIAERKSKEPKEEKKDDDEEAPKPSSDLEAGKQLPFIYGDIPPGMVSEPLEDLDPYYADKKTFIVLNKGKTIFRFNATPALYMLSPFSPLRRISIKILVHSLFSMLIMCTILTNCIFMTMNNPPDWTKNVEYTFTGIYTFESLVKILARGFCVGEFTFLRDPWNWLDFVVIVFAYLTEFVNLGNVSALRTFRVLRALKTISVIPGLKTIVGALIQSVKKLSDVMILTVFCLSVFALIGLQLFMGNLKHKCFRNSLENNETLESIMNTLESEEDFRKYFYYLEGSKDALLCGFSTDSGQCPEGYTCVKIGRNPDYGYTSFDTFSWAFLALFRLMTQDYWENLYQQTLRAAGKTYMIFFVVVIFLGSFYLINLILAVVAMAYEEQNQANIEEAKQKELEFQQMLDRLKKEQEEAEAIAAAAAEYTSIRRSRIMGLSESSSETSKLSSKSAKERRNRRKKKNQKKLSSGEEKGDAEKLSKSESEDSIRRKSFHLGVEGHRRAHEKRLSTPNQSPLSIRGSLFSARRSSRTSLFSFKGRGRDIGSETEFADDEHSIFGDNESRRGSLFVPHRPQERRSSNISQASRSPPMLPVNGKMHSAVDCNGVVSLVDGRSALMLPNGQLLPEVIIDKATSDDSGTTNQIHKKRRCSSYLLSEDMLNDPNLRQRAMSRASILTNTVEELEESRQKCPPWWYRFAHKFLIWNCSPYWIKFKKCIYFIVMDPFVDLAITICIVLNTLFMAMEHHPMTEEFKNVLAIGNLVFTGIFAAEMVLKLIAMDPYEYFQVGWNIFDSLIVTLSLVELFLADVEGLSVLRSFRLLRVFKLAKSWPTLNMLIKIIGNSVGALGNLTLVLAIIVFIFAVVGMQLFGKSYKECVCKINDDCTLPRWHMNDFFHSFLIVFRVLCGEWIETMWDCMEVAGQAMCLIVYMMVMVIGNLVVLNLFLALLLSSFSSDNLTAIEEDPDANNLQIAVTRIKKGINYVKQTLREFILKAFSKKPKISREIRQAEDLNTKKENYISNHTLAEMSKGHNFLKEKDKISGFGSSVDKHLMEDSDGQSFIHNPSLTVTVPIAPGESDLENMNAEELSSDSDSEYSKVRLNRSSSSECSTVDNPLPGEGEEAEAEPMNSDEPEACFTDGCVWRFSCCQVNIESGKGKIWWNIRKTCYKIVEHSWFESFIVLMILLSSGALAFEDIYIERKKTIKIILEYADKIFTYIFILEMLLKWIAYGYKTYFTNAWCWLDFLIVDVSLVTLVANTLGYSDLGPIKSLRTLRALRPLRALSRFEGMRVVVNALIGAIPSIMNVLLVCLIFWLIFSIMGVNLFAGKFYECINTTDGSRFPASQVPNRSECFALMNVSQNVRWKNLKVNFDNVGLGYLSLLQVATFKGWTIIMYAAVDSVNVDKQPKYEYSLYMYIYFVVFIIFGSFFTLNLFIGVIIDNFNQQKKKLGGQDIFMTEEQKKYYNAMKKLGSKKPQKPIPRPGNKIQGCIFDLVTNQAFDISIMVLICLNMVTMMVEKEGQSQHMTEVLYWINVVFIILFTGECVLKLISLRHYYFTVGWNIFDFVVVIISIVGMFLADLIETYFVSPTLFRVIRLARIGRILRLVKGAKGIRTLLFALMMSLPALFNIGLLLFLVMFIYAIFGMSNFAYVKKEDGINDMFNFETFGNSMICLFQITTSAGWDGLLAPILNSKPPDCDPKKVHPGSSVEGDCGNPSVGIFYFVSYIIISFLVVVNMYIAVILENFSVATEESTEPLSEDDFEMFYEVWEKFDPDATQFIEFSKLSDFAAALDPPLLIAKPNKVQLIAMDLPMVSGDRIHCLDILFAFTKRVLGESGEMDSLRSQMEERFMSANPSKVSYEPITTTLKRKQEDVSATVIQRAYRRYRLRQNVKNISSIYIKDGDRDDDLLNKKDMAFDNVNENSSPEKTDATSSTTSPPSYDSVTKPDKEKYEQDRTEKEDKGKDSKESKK
Chain of NaV1.7 (Q15858 whole entry): as the sequence (Q15858 whole entry, one chain of several) above
Chain of NaV1.7 (Q07699 19-218, further chain): as the sequence (Q07699 19-218, one chain of several, further chain) above

B1: TMEM233 35-109 (protein, UniProt B4DJY2 35-109, looked up, fragment)
chain: KNYLWLTIVSCFCPAYPINIVALVFSIMSLNSYNDGDYEGARRLGRNAKWVAIASIIIGLLIIGISCAVHFTRNA
With B1, in the assay with NaV1.7, the “Tau Fast, individual values” was 8.336 and 5.75 and 6.866 and 4.165 and 7.033 and 6.03 and 5.901; the “Tau Fast, mean” value amounted to 6.297; the “Tau Fast, mean diff. NaV1.7/β1/TMEM233 35-109 vs. NaV1.7/β1” value is listed as 0.2467.

B2: HA-TMEM233 (protein, UniProt B4DJY2 1-109, looked up)
Transmembrane protein 233: MSQYAPSPDFKRALDSSPEANTEDDKTEEDVPMPKNYLWLTIVSCFCPAYPINIVALVFSIMSLNSYNDGDYEGARRLGRNAKWVAIASIIIGLLIIGISCAVHFTRNA
modifications: HA tag
Consider B2, for which, in the assay with NaV1.7/TMEM233 (mean of n = 3), the “particles/cell, mean” value turned out to be 7.485 particles/cell. In addition, the particles/cell with NaV1.7/TMEM233 (replicate 1) is 4.895 particles/cell; with NaV1.7/TMEM233 (replicate 2), 6.562 particles/cell; in the assay with NaV1.7/TMEM233 (replicate 3), 11 particles/cell.
